B8: Snu114^72-1008 (yeast Snu114 lacking the acidic N-terminal region) (domain or fragment, UniProt P36048 72-1008, looked up)
chain: KEVEVLMETKNTQSPQTPLVEPVTERTKLQEHTIFTQLKKNIPKTRYNRDYMLSMANIPERIINVGVIGPLHSGKTSLMDLLVIDSHKRIPDMSKNVELGWKPLRYLDNLKQEIDRGLSIKLNGSTLLCTDLESKSRMINFLDAPGHVNFMDETAVALAASDLVLIVIDVVEGVTFVVEQLIKQSIKNNVAMCFVINKLDRLILDLKLPPMDAYLKLNHIIANINSFTKGNVFSPIDNNIIFASTKLGFTFTIKEFVSYYYAHSIPSSKIDDFTTRLWGSVYYHKGNFRTKPFENVEKYPTFVEFILIPLYKIFSYALSMEKDKLKNLLRSNFRVNLSQEALQYDPQPFLKHVLQLIFRQQTGLVDAITRCYQPFELFDNKTAHLSIPGKSTPEGTLWAHVLKTVDYGGAEWSLVRIYSGLLKRGDTVRILDTSQSESRQKRQLHDISKTETSNEDEDEDDETPSCEVEEIGLLGGRYVYPVHEAHKGQIVLIKGISSAYIKSATLYSVKSKEDMKQLKFFKPLDYITEAVFKIVLQPLLPRELPKLLDALNKISKYYPGVIIKVEESGEHVILGNGELYMDCLLYDLRASYAKIEIKISDPLTVFSESCSNESFASIPVSNSISRLGEENLPGLSISVAAEPMDSKMIQDLSRNTLGKGQNCLDIDGIMDNPRKLSKILRTEYGWDSLASRNVWSFYNGNVLINDTLPDEISPELLSKYKEQIIQGFYWAVKEGPLAEEPIYGVQYKLLSISVPSDVNIDVMKSQIIPLMKKACYVGLLTAIPILLEPIYEVDITVHAPLLPIVEELMKKRRGSRIYKTIKVAGTPLLEVRGQVPVIESAGFETDLRLSTNGLGMCQLYFWHKIWRKVPGDVLDKDAFIPKLKPAPINSLSRDFVMKTRRRKGISTGGFMSNDGPTLEKYISAELYAQLRENGLVP
notes: synthetic gene; Co-purifies with endogenous GTP; source: insect cells (MultiBac baculovirus); co-produced with Prp8 constructs or alone; purified (StrepTactin, SEC); not shown: Strep tag (from the vector pIDS-C-Strep), C-terminal, kept

Conditions in all cases: both partners purified
For assay [1], the target named is B8. The experiment in a line: SEC; two proteins co-produced in insect cells, both Strep-tagged; StrepTactin capture, then SEC on Superdex S200 in 10 mM TRIS-HCl pH 8.0, 300 mM NaCl, 2 mM DTT; co-purification of wt and variant complexes. Background: Size exclusion chromatography separates by hydrodynamic size, large species first.
Assay [2] concerns the target B8. The experiment in a line: SEC; limited proteolysis of the purified trimeric complex with chymotrypsin (room temperature, 35 min), then SEC on Superose 6 Increase in 20 mM TRIS-HCl pH 8.5, 500 mM NaCl, 2 mM DTT; fragments identified by mass spectrometric fingerprinting and N-terminal sequencing.
Assay [3] concerns the target T1, Prp8^132-2413 (large fragment of yeast Prp8 lacking the first 131 residues) (yeast, UniProt P33334 132-2413).
T1 construct: Prp8, yeast, residues 132-2413; synthetic gene; methods and results print 132-2413; source: complex purified (StrepTactin, Heparin, Mono Q, SEC); not shown: Strep tag (from the vector pFL-C-Strep), C-terminal, kept
The experiment in a line: SEC; three proteins co-produced in insect cells, all Strep-tagged; complex purified by StrepTactin, Heparin, Mono Q and SEC (Superose 6, 50 mM TRIS-HCl pH 8.5, 300 mM NaCl, 2 mM DTT); analytical gel filtration with SDS-PAGE of fractions.

B1: Prp8^SBR Δ421–468 (domain or fragment, yeast, UniProt P33334 315-555, looked up)
chain: STPLRDEVTDKNYYYLFDKKSFFNGKALNNAIPGGPKFEPLYPREEEEDYNEFNSIDRVIFRVPIRSEYKVAFPHLYNSRPRSVRIPWYNNPVSCIIQNDEEYDTPILPNTKDAMSLYHSPFPFNRTKGKMVRAQDVALAKKWFLQHPDEEYPVKVKVSYQKLLKNYVLNELHPTLPTNHNKTKLLKSLKNTK
notes: also called Prp8^Δ421–468; source: insect cells, co-produced with Snu114; complex purified; not shown: Strep tag (from the vector pFL-N-Strep), N-terminal, kept
For B1, the binding result in assay [1] is on record as “binds”.

B2: Prp8^SBR Δ402–406 (domain or fragment, yeast, UniProt P33334 315-555, looked up)
chain: STPLRDEVTDKNYYYLFDKKSFFNGKALNNAIPGGPKFEPLYPREEEEDYNEFNSIDRVIFRVPIRSEYKVAFPHLYNSRPRSVRIPVSCIIQNDEEYDTPALFFDPSLNPIPHFIDNNSSLNVSNTKENGDFTLPEDFAPLLAEEEELILPNTKDAMSLYHSPFPFNRTKGKMVRAQDVALAKKWFLQHPDEEYPVKVKVSYQKLLKNYVLNELHPTLPTNHNKTKLLKSLKNTK
notes: also called Prp8^Δ402–406; source: insect cells, co-produced with Snu114; complex purified; not shown: Strep tag (from the vector pFL-N-Strep), N-terminal, kept
In the case of B2, the binding result in assay [1] is recorded as “binds”.

B3: Prp8 residues 315-555 (Prp8^SBR), chymotryptic fragment (domain or fragment, yeast, UniProt P33334 315-555, looked up)
chain: STPLRDEVTDKNYYYLFDKKSFFNGKALNNAIPGGPKFEPLYPREEEEDYNEFNSIDRVIFRVPIRSEYKVAFPHLYNSRPRSVRIPWYNNPVSCIIQNDEEYDTPALFFDPSLNPIPHFIDNNSSLNVSNTKENGDFTLPEDFAPLLAEEEELILPNTKDAMSLYHSPFPFNRTKGKMVRAQDVALAKKWFLQHPDEEYPVKVKVSYQKLLKNYVLNELHPTLPTNHNKTKLLKSLKNTK
Regarding B3, the binding result in assay [2] is reported as “binds”.

B4: Prp8^SBR WY402-403AA (domain or fragment)
chain: not shown
notes: also called Prp8^WY402/3AA; source: insect cells, co-produced with Snu114; complex purified; not shown: Strep tag (from the vector pFL-N-Strep), N-terminal, kept
B4: the binding result in assay [1] is given as “binds”.

B5: Prp8^SBR Y403A (domain or fragment, yeast, UniProt P33334 315-555, looked up)
chain: STPLRDEVTDKNYYYLFDKKSFFNGKALNNAIPGGPKFEPLYPREEEEDYNEFNSIDRVIFRVPIRSEYKVAFPHLYNSRPRSVRIPWANNPVSCIIQNDEEYDTPALFFDPSLNPIPHFIDNNSSLNVSNTKENGDFTLPEDFAPLLAEEEELILPNTKDAMSLYHSPFPFNRTKGKMVRAQDVALAKKWFLQHPDEEYPVKVKVSYQKLLKNYVLNELHPTLPTNHNKTKLLKSLKNTK
notes: also called Prp8^Y403A; source: insect cells, co-produced with Snu114; complex purified; not shown: Strep tag (from the vector pFL-N-Strep), N-terminal, kept
For B5, in assay [1], the binding result was “binds”.

B6: Prp8^SBR 402–406_5S (domain or fragment, yeast, UniProt P33334 315-555, looked up)
chain: STPLRDEVTDKNYYYLFDKKSFFNGKALNNAIPGGPKFEPLYPREEEEDYNEFNSIDRVIFRVPIRSEYKVAFPHLYNSRPRSVRIPSSSSSVSCIIQNDEEYDTPALFFDPSLNPIPHFIDNNSSLNVSNTKENGDFTLPEDFAPLLAEEEELILPNTKDAMSLYHSPFPFNRTKGKMVRAQDVALAKKWFLQHPDEEYPVKVKVSYQKLLKNYVLNELHPTLPTNHNKTKLLKSLKNTK
notes: also called Prp8^402–406_5S; source: insect cells, co-produced with Snu114; complex purified; not shown: Strep tag (from the vector pFL-N-Strep), N-terminal, kept
Turning to B6, in assay [1], the binding result is on record as “binds”.

B7: Prp8^SBR Y403F (domain or fragment, yeast, UniProt P33334 315-555, looked up)
chain: STPLRDEVTDKNYYYLFDKKSFFNGKALNNAIPGGPKFEPLYPREEEEDYNEFNSIDRVIFRVPIRSEYKVAFPHLYNSRPRSVRIPWFNNPVSCIIQNDEEYDTPALFFDPSLNPIPHFIDNNSSLNVSNTKENGDFTLPEDFAPLLAEEEELILPNTKDAMSLYHSPFPFNRTKGKMVRAQDVALAKKWFLQHPDEEYPVKVKVSYQKLLKNYVLNELHPTLPTNHNKTKLLKSLKNTK
notes: also called Prp8^Y403F; source: insect cells, co-produced with Snu114; complex purified; not shown: Strep tag (from the vector pFL-N-Strep), N-terminal, kept
Turning to B7, in assay [1], the binding result was “binds”. In the case of B8, the binding result in assay [3] is given as “binds”.

B9: Aar2 (natural protein, yeast, UniProt P32357 1-355, looked up)
chain: MNTVPFTSAPIEVTIGIDQYSFNVKENQPFHGIKDIPIGHVHVIHFQHADNSSMRYGYWFDCRMGNFYIQYDPKDGLYKMMEERDGAKFENIVHNFKERQMMVSYPKIDEDDTWYNLTEFVQMDKIRKIVRKDENQFSYVDSSMTTVQENELLKSSLQKAGSKMEAKNEDDPAHSLNYTVINFKSREAIRPGHEMEDFLDKSYYLNTVMLQGIFKNSSNYFGELQFAFLNAMFFGNYGSSLQWHAMIELICSSATVPKHMLDKLDEILYYQIKTLPEQYSDILLNERVWNICLYSSFQKNSLHNTEKIMENKYPELLGKDNEDDALIYGISDEERDDEDDEHNPTIVGGLYYQRP
notes: Aar2, U5 snRNP assembly factor, yeast; synthetic gene; source: complex purified (StrepTactin, Heparin, Mono Q, SEC); not shown: Strep tag (from the vector pIDK-C-Strep), C-terminal, kept
On to B9, for which, in assay [3], the binding result was “binds”.

The record behind these values is publication PMC7192624, “A Snu114–GTP–Prp8 module forms a relay station for efficient splicing in yeast” (Nucleic Acids Research, 2020).
